Columns and labels:
[1] = target: T1, human AXL (human, UniProt P30530 26-449, limits assumed); assay: not described (FIG. 6)
T1 construct: In the degradation, internalization and homodimerization experiments the receptor stood on the tumor cell surface; also called AXL receptor; human form of AXL
T1 sequence (looked up): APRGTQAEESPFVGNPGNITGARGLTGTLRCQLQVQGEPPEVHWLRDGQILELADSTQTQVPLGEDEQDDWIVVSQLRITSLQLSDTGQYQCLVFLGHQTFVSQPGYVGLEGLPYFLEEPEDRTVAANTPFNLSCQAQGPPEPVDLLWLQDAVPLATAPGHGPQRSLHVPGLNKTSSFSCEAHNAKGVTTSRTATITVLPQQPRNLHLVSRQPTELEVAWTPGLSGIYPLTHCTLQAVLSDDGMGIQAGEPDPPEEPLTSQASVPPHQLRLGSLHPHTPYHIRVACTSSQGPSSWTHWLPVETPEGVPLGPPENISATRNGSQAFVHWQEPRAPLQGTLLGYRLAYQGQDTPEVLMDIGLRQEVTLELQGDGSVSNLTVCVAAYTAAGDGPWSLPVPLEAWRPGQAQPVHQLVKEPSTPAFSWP

[2] = target: T2, murine AXL (murine, UniProt Q00993 19-443, limits assumed); assay: not described (FIG. 6)
T2 construct: also called murine form of AXL
T2 sequence (looked up): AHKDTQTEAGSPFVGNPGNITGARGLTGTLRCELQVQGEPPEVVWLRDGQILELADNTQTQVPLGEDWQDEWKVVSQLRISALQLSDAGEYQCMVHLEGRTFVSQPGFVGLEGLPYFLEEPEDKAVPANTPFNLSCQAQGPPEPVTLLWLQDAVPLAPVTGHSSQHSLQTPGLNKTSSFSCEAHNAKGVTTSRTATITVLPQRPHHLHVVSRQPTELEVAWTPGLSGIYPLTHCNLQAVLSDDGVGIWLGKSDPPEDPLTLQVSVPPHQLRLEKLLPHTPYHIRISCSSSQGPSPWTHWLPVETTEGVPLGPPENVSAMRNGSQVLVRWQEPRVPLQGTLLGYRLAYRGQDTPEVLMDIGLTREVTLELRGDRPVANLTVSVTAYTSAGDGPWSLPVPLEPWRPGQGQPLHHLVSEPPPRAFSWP

B1: human monoclonal antibody D4 (antibody, V domains shown)
VH: EVQLVESGGSLVKPGGSLRLSCAASGFTFSNYSMNWVRQAPGKGLEWISSISGSSRYIYYADFVKGRFTISRDNATNSLYLQMNSLRAEDTAVYYCVRGRKDSGTIYHWGRGTLVTVSS
VL: QSVLTQPASVSGSPGQSITISCAGTSSDVGGYNYVSWYQQHPGKAPKLMIYEDSKRPSGVSNRFSGSKSGNTASLTISGLQAEDEADYYCKKDDYSLRFTFGGGTKLAVLG
notes: also called D4 antibody; D4 human monoclonal antibody
[1]
  binding result: binds
[2]
  binding result: binds

— US20170340734A1 (INSERM INSTITUT NATIONAL DE LA SANT ET DE LA RECHERCHE M …, published 2017)
